According to publication PMC2812487:

Assays:
[1] = biological target: HLA-Cw3 on 721.221 cells; assay: flow cytometry on cells (Ig-fusion protein staining)
[2] = biological target: HLA-Cw6 on 721.221 cells; assay: as above

response [1]: 114 MFI
response [2]: 1.05 MFI
Substance: KIR2DS2-Ig (from UniProt P43631) KYK/KFK
